Measurements as given in patent US20250152729A1 (CANCER RESEARCH TECHNOLOGY, published 2025).

T1: mouse SEMA4A expressed on expi293 cells (UniProt ID Q62178) (mouse, UniProt Q62178 33-760)
T1 construct: Transient transfection in expi293 cells
T1 sequence: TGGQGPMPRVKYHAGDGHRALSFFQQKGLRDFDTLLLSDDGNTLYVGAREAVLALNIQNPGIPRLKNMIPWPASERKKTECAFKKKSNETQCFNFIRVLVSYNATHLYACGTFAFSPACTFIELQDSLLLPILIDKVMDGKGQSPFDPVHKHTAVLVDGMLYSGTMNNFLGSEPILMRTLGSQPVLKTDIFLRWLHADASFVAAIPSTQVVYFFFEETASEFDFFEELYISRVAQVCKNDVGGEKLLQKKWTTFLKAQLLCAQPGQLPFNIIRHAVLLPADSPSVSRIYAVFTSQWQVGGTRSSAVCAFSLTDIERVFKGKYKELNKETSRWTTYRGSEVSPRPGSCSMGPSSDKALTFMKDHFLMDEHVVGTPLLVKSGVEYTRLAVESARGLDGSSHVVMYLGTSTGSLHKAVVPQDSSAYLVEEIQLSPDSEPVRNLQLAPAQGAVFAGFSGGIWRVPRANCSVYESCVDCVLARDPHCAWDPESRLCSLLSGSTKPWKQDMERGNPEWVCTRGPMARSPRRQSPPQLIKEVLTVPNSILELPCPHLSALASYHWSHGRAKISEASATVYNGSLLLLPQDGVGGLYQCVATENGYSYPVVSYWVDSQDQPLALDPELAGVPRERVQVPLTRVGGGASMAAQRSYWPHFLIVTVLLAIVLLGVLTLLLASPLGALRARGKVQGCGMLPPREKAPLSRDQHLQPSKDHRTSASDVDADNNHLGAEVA

T2: human SEMA4A expressed on cells (UniProt ID Q9H3S1, isoform 1) (human, UniProt Q9H3S1 33-761)
T2 construct: Cell-surface SEMA4A: endogenous on MM.1S, NCI-H929 and Karpas-25 cells, or expi293 cells transfected with Origene SC323738; also called human Semaphorin4A; SEMA4A endogenously expressed on MM.1S cells
T2 sequence: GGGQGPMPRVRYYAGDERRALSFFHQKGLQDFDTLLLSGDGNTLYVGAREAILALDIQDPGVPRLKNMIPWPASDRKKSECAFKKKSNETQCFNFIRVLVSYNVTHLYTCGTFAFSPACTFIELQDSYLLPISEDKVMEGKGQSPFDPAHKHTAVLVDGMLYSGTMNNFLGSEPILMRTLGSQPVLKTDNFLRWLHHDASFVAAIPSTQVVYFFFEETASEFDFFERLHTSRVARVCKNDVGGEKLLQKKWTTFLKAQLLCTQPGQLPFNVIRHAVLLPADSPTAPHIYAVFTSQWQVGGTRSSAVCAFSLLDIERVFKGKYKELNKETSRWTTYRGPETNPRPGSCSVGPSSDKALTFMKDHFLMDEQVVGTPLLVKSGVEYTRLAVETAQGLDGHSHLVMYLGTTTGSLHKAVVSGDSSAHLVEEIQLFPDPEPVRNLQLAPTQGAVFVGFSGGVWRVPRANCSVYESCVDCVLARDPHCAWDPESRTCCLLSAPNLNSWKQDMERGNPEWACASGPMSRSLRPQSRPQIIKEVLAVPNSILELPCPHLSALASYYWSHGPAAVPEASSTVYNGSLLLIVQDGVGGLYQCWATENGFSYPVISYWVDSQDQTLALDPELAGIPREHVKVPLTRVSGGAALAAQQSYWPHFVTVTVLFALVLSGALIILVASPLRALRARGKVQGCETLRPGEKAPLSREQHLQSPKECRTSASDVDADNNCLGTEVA


Experiments:
[1] = molecular target: T1, mouse SEMA4A expressed on expi293 cells …; test: Mirrorball direct binding, dilution series on expi293 cells transiently transfected with mouse SEMA4A, anti-human Alexa Fluor 647
Text: Hits from the primary screening were re-formatted into the human Alya IgG1 vector and re-expressed and purified as described in section 4.1. In addition, a single clone was identified that contained an Asparagine deamidation motif (Asn Gly) within its VHCDR2. This potential sequence liability was de-risked by synthesising de novo two clonal variant VH genes (Asn Ala and Gln Gly) and cloning these sequences into the human Alya IgG1 expression vector. To determine the specificity profile of each purified human Alya IgG1, a dilution series was tested for binding to human SEMA4A, mouse SEMA4A, cyno SEMA4A, human SEMA4B and mock transfected cells (transient transfections set up in expi 293 cells.) The five assays employed methods described in section 2.3, using the appropriate cells and substituting the un-purified scFv periplasmic preparation with the recombinant human Alya IgG1 dilution series. Data was analysed as Count x median mean intensity (x FLU).

[2] = molecular target: T2, human SEMA4A expressed on cells …; test: Mirrorball epitope competition on MM.1S cells; competitor: fixed 5E3 mouse IgG1
Text: The 5E3 epitope competition assay assessed the ability of the un-purified IgGs expressed in a human IgG1 backbone to compete for binding to the mouse 5E3 epitope on human SEMA4A endogenously expressed by MM.1S cells, a human multiple myeloma cell line. The assay utilised a secondary-Alexa Fluor 647 conjugate, 5E3 expressed in a mouse IgG1 (A) backbone (BioLegend®, San Diego, CA, 148402) and a Mirrorball fluorescence cytometer (SPT Labtech, UK). Binding of 5E3 mouse IgG1 to MM.1S cells was measured via an anti-mouse secondary labelled with Alexa Fluor 647 (Invitrogen, A21235) in the presence of a single concentration of each un-purified human IgG1. […] 10 μl undiluted un-purified IgG, contained in Expi293 expression medium (Gibco, UK, A1435101), were added to the assay plate (Greiner Bio-one, UK, 781906), followed by 10 ul of 1.2 nM 5E3 mouse IgG1 and 20 μl MM.1S cell suspension containing 1,500 cells that was spiked with 4 nM anti-mouse Alexa Fluor 647. The assay plate was incubated for 4 hours at room temperature, in the dark prior to reading on a Mirrorball fluorescence cytometer (SPT Labtech, UK) using a 640 nm laser for excitation and measuring emission in the FL-4 channel (650-690 nm). Data was analysed as Count x median mean intensity (x FLU). All dilutions were performed in Hanks' balanced salt solution (Sigma, UK; cat: H8264) containing 0.1% (w/V) BSA (Sigma, UK; cat: A9576). Maximum binding signal was determined by analysing the binding of 5E3 mouse IgG1 to MM.1S cells in the absence of competitor un-purified human IgG1. Background binding signal was determined by analysing the fluorescence generated in the absence of 5E3 mouse IgG1. Data were analysed and graphed using GraphPad Prism software (GraphPad Software, Inc, La Jolla, CA).
Hits from the primary screening were re-formatted into the human Alya IgG1 vector and re-expressed and purified as described in section 4.1. 5E3 epitope competition assay methods are described in section 3.2 and were used to test purified human Alya IgG1s. The purified human Alya IgG1s were diluted to a 4× stock and then serially diluted using 4-fold dilutions to generate a 10 point concentration response curve.

[3] = molecular target: T2, human SEMA4A expressed on cells …; test: cell-based or functional assay

Row | Binder | binding result [1] | IC50 [2] [nM] | IC50 (pM), Fab-ZAP cell kill, NCI-H929 [3] [pM] | Max % Cell Kill, Fab-ZAP, NCI-H929 [3] [%]
1 | C0120917 human Alya IgG1 (antibody, V domains shown, Fully human, phage display derived; human IgG1 Alya constant (239iCys, S442C, EU); unconjugated) VH: not shown VL: NFMLTQPHSVSESPGKTVTISCTASGDTLDNKYVNWYQVRPGSAPATLIFHYEERDSGVPDRFSGSFDASSNSASLTISGLQTADEADYFCQSYDSKRDNLVVFGGGTKVTVL | binds | – | – | –
2 | C0120903 human Alya IgG1 (antibody, V domains shown, Fully human, phage display derived; human IgG1 Alya constant (239iCys, S442C, EU); unconjugated) VH: EVQLVQSGAEVKKPGSSMKVSCKASGGTFNSYTINWVRQAPGQGLEWVGGFIPIFGTADYAQKFHGRVAITADESMSTAYMELSSLRSEDTAVYYCARAPLGSEPFDYWGQGTMVTVSS VL: SYVLTQPPSVSVAPGQTARITCGGNNIGSKSVHWYQQKPGQAPVLVVYDDSDRPSGIPERFSGSNSGNTATLTISRVEAGDEADYYCQVWDSSSDHLVFGGGTKLTVL | binds | – | – | –
3 | C0120906 human Alya IgG1 (antibody, V domains shown, Fully human, phage display derived; human IgG1 Alya constant (239iCys, S442C, EU); unconjugated) VH: EVQLVQSGPEVKKPGASVKISCKASGYKLNDPGVHGVSWVRQAPGQGLEWMGWISTLNGDTRYAQKFQGRVTMATDSSTSTIYMDLRSLKSDDTALYYCARDDYTAIFDFWGRGTLVTVSS VL: QSVLTQPPSVSVAPGQTASITCGGSNIGSQSVHWYQQKPGQAPVLVVYDDSDRPSGIPERFSGSKSGNTASLILSRVEAGDEADYYCQVWDSSTDHHVFGTGTKVTVL | binds | – | – | –
4 | C0120905 human Alya IgG1 (antibody, V domains shown, Fully human, phage display derived; human IgG1 Alya constant (239iCys, S442C, EU); unconjugated) VH: not shown VL: NFMLTQPHSVSESPGKTVTISCTGSGGNIVDNFVQWHQQRPGSAPRTVIYEDDQRPSGVPDRFSASVDSSSNSGTLSISGLKTEDEADYYCQSYDGANRWVFGGGTKLTVL | binds | – | – | –
5 | 5Hg2-5Lg1 human Alya IgG1 (antibody, V domains shown, Humanised 5E3; human IgG1 Alya constant (239iCys, S442C, EU), lambda light chain; purified, unconjugated) VH: QVQLVQSGAEVKKPGASVKVSCKASGYTFTDYWMHWVRQAPGQRLEWMGAIDTSDSYTSYNQKFKGRVTITRDTSASTAYMELSSLRSEDTAVYYCARDYGNFYYYAMDYWGQGTLVTVSS VL: QAVVTQEPSLTVSPGGTVTLTCRSSTGAVTTSNYANWFQQKPGQAPRTLIYGTNNRAPWTPARFSGSLLGGKAALTLSGAQPEDEAEYYCALWYSNHWVFGGGTKLTVL | binds | 1.1 | 38 | 78
6 | 5Hg1-5Lg2 human Alya IgG1 (antibody, V domains shown, Humanised 5E3; human IgG1 Alya constant (239iCys, S442C, EU), lambda light chain; purified, unconjugated) VH: QVQLVQSGAEVKKPGASVKVSCKASGYTFTDYWMHWVRQAPGQGLEWMGAIDTSDSYTSYNQKFKGRVTMTRDTSTSTVYMELSSLRSEDTAVYYCARDYGNFYYYAMDYWGQGTLVTVSS VL: QAVVTQEPSLTVSPGGTVTLTCRSSTGAVTTSNYANWFQQKPGQAPRTLIYGTNNRAPWTPARFSGSLLGGKAALTLLGAQPEDEAEYYCALWYSNHWVFGGGTKLTVL | binds | 2.1 | 74 | 74
7 | 5Hg1-5Lg1 human Alya IgG1 (antibody, V domains shown, Humanised 5E3; human IgG1 Alya constant (239iCys, S442C, EU), lambda light chain; purified, unconjugated) VH: QVQLVQSGAEVKKPGASVKVSCKASGYTFTDYWMHWVRQAPGQGLEWMGAIDTSDSYTSYNQKFKGRVTMTRDTSTSTVYMELSSLRSEDTAVYYCARDYGNFYYYAMDYWGQGTLVTVSS VL: QAVVTQEPSLTVSPGGTVTLTCRSSTGAVTTSNYANWFQQKPGQAPRTLIYGTNNRAPWTPARFSGSLLGGKAALTLSGAQPEDEAEYYCALWYSNHWVFGGGTKLTVL | binds | 2 | 66 | 76
8 | 5Hg2-5Lg2 human Alya IgG1 (antibody, V domains shown, Humanised 5E3; human IgG1 Alya constant (239iCys, S442C, EU), lambda light chain; purified, unconjugated) VH: QVQLVQSGAEVKKPGASVKVSCKASGYTFTDYWMHWVRQAPGQRLEWMGAIDTSDSYTSYNQKFKGRVTITRDTSASTAYMELSSLRSEDTAVYYCARDYGNFYYYAMDYWGQGTLVTVSS VL: QAVVTQEPSLTVSPGGTVTLTCRSSTGAVTTSNYANWFQQKPGQAPRTLIYGTNNRAPWTPARFSGSLLGGKAALTLLGAQPEDEAEYYCALWYSNHWVFGGGTKLTVL | binds | 1.1 | 52 | 83
9 | C0120914 human Alya IgG1 (antibody, V domains shown, Fully human, phage display derived; human IgG1 Alya constant (239iCys, S442C, EU); unconjugated) VH: QVQLQESGPGLVKPSETLSLTCTVSGGSVSSGRYDWSWIRQPPGKGLEWIGHIYYTGITDYNPSLRSRVTISADKPKNQFSLKLNSVTAADTAVYYCARGPFFDPWGQGTMVTVSS VL: QSVLTQPPSVSVAPGQTASLTCGANNIGSKSVQWYQQKPGQAPVLVVYDGSDRPSGIPDRFSGSSSENTATLTISRVEAGDEADYYCQLWDSVTDRPVFGGGTKVTVL | binds | – | – | –
10 | C0120918 human Alya IgG1 (antibody, V domains shown, Fully human, phage display derived; human IgG1 Alya constant (239iCys, S442C, EU); unconjugated) VH: not shown VL: SYELTQPPSVSVSPGQTARITCSGDALPKQYAYWYQQKPGQAPVLVIYKDSERPSGIPERFSGSSSGTTVTLTISGVQAEDEADYYCQSADSSGTWVFGGGTKVTVL | binds | – | – | –
11 | mouse 5E3 expressed as human IgG1 Alya (antibody, V domains shown, Mouse variable domains on human IgG1 Alya constant (pEU1.22; 239iCys and S442C, EU numbering); purified, unconjugated; also called 5E3 IgG1 Alya) VH: QVQLQQPGAELVMPGASVKMSCKASGYTFTDYWMHWVKQRPGQGLEWIGAIDTSDSYTSYNQKFKGKATLTVDESSSTAYMQLSSLTSEDSAVYYCARDYGNFYYYAMDYWGQGTSVTVSS VL: QAVVTQESALTTSPGETVTLTCRSSTGAVTTSNYANWVQEKPDHLFTGLIGGTNNRAPGVPARFSGSLIGDKAALTITGAQTEDEAIYFCALWYSNHWVFGGGTKLTVL | binds | 0.3 | 38 | 89
